Measurements reported in patent publication US20250154277A1 (CONCEPT TO MEDICINE BIOTECH, published 2025).
Residue numbers refer to the chain shown, from its start. Read-outs that look alike come from different tables or passages of the source. Each block holds one molecule with its values, some of them ahead of it.

Tests used:
[1] = target: T1, human 5T4 expressed on cells (human, UniProt Q13641 32-420); assay: flow cytometry, CHOK1-hu5T4 cells
T1 construct: whole, on cells; also called CHOK1-hu5T4; CHO-K1-expressing human 5T4
T1 sequence (looked up): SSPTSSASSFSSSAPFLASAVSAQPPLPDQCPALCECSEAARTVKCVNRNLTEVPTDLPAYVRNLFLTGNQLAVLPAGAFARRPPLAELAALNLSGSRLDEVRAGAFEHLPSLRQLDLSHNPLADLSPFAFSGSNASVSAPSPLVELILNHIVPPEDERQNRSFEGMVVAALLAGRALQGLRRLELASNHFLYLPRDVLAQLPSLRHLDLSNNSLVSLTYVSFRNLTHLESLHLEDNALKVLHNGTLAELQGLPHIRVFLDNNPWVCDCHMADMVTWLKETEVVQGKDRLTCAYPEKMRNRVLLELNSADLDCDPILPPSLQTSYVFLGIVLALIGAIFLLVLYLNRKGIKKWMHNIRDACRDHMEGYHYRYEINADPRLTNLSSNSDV

human 5T4-His protein [2] = target: T2, human 5T4-His protein (human, UniProt Q13641 32-355); assay: competitive ELISA, coated human 5T4, vs naptumomab-biotin
T2 construct: also called recombinant 5T4 protein (human 5T4-his tag); human 5T4 protein; not shown: His tag
T2 sequence (looked up): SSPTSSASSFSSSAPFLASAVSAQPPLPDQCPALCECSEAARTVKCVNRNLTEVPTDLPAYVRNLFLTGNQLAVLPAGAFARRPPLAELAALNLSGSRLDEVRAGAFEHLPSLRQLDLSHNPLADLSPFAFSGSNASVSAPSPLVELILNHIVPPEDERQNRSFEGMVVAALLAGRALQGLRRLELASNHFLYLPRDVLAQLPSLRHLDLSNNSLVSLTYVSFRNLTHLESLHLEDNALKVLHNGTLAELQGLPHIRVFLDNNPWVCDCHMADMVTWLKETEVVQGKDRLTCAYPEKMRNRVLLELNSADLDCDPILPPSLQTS

[3] = target: T1, human 5T4 expressed on cells; assay: flow cytometry, CHOK1-hu5T4 cells; remark: listed apart in the source
human 5T4-His protein [4] = target: T2, human 5T4-His protein; assay: ELISA, coated human 5T4-His
human 5T4-His protein [5] = target: T2, human 5T4-His protein; assay: competitive ELISA, coated human 5T4, vs naptumomab-biotin; remark: listed apart in the source
human 5T4-His protein [6] = target: T2, human 5T4-His protein; assay: ELISA, coated human 5T4-His; remark: listed apart in the source
[7] = target: T1, human 5T4 expressed on cells; assay: flow cytometry, HEK293-hu5T4 cells
human 5T4-His protein [8] = target: T2, human 5T4-His protein; assay: competitive ELISA, coated human 5T4, vs naptumomab-biotin; remark: listed apart in the source
human 5T4-His protein [9] = target: T2, human 5T4-His protein; assay: as above; remark: listed apart in the source
human 5T4-His protein [10] = target: T2, human 5T4-His protein; assay: SPR Biacore, Protein A capture
Method: The binding of the 14G12 humanized antibodies to recombinant 5T4 protein (human 5T4-his tag) was tested with Biacore using a capture method. The mAbs were captured using Protein A chip. Serial dilution of human 5T4-his tag protein was injected over captured antibody for 120 s-180 s at a flow rate of 30 μl/min. The antigen was allowed to dissociate for 360 s-1000 s. All the experiments were carried out on a Biacore T200. Data analysis was carried out using the Biacore T200 evaluation software.

[11] = target: T1, human 5T4 expressed on cells; assay: flow cytometry, MCF-7 cells
Method: (§1) To evaluate the binding property of affinity maturated antibodies to surface 5T4, tested antibodies were analyzed for their binding to CHOK1-hu5T4, HEK293-hu5T4 or MCF-7 cells by FACS. […] After wash by FACS buffer, PE conjugated-anti-human IgG antibody was added to each well and incubated at 4° C. for 30 minutes. MFI of PE was evaluated by MACSQuant Analyzer 16.

[12] = target: T1, human 5T4 expressed on cells; assay: flow cytometry, HEK293-hu5T4 cells; remark: listed apart in the source
Method: as §1

[13] = target: T1, human 5T4 expressed on cells; assay: flow cytometry, CHOK1-hu5T4 cells; remark: listed apart in the source
Method: as §1

[14] = target: T1, human 5T4 expressed on cells; assay: flow cytometry, HEK293-hu5T4 cells; remark: listed apart in the source
Method: as §1

[15] = target: T1, human 5T4 expressed on cells; assay: flow cytometry, CHOK1-hu5T4 cells; remark: listed apart in the source
Method: as §1

human 5T4-His protein [16] = target: T2, human 5T4-His protein; assay: ELISA, coated 5T4-His
human 5T4-His protein [17] = target: T2, human 5T4-His protein; assay: ELISA, coated human 5T4-His; remark: listed apart in the source
Method: (§2) Briefly, microtiter plates were coated with human 5T4-His protein at 2 μg/ml in PBS, 30 μl/well at 4° C. overnight, then blocked with 5% PBS/Milk. Serial dilutions of antibodies were added to each well and incubated for 1 hour at room temperature. The plates were washed with PBS/Tween and then incubated with Goat Anti-Human IgG-HRP for 50 mins at room temperature. After washing, the plates were developed with TMB substrate and analyzed by spectrophotometer at OD 450 nm.

human 5T4-His protein [18] = target: T2, human 5T4-His protein; assay: ELISA, coated human 5T4-His; remark: listed apart in the source
Method: as §2

human 5T4-His protein [19] = target: T2, human 5T4-His protein; assay: SPR Biacore, Protein A capture; remark: listed apart in the source
Method: The binding affinity of tested antibodies against recombinant 5T4 protein (human 5T4-his tag) was tested with Biacore using a capture method. The antibodies were captured using Protein A chip. A serial dilution of human 5T4-his tag protein was injected over captured antibody for 3 mins at a flow rate of 30 μl/min. The antigen was allowed to dissociate for 300 s. All the experiments were carried out on a Biacore T200. Data analysis was carried out using Biacore T200 evaluation software.

human 5T4-His protein [20] = target: T2, human 5T4-His protein; assay: SPR Biacore, Protein A capture; remark: listed apart in the source

EC50 (read off the curve) [1]: 1 nM
IC50 (read off the curve) (human 5T4-His protein [2]): 5 nM
EC50 (read off the curve) [3]: 2 nM
EC50 (read off the curve) (human 5T4-His protein [4]): 0.2 nM
IC50 (read off the curve) (human 5T4-His protein [5]): 3 nM
EC50 (read off the curve) (human 5T4-His protein [6]): 0.1 nM
EC50 (read off the curve) [7]: 2 nM
IC50 (read off the curve) (human 5T4-His protein [8]): 6 nM
IC50 (read off the curve) (human 5T4-His protein [9]): 4 nM
Molecule: naptumomab (antibody portion of naptumomab (NeoTX) that targets 5T4)

EC50 (read off the curve) [11]: ~0.3 nM
EC50 (read off the curve) [14]: ~2 nM
EC50 (read off the curve) [15]: ~1 nM
fold increase of binding affinity against the parental Hu14G12-28 (human 5T4-His protein [20]): 7.41 fold
EC50 (read off the curve) (human 5T4-His protein [17]): ~0.1 nM
Kd (human 5T4-His protein [19]): 0.552 nM
koff (human 5T4-His protein [19]): 0.000101 s⁻¹
kon (human 5T4-His protein [19]): 183000 M⁻¹ s⁻¹
B2: Hu14G12-28-108# (antibody, V domains shown)
VH: QVQLVQSGAEVKKPGASVKVSCKASGYAFSSSWMNWVRQAPGQGLEWMGRIYREDGHTNYNGKFKGRVTMTADKSITTAYMELSRLRSDDTAVYYCANGGAMDYWGQGTLVTVSS
VL: DIQMTQSPSSLSASVGDRVTITCRASQDISNYLNWYQQKPGKAPKLLIYYTSRLHSGVPSRFSGSGSGTDYTFTISSLQPEDIATYFCANDNTLPWTFGGGTKVEIK

The remaining lines, values behind:

B1: Hu14G12-28 (antibody, V domains shown)
VH: B2 VH
VL: B2 VL with A89Q, N90Q
notes: humanized; also called parental Hu14G12-28 antibody
Kd (human 5T4-His protein [10]): 2.42 nM
koff (human 5T4-His protein [10]): 0.000714 s⁻¹
kon (human 5T4-His protein [10]): 295000 M⁻¹ s⁻¹
EC50 (read off the curve) [11]: ~0.2 nM
EC50 (read off the curve) [12]: ~2 nM
EC50 (read off the curve) [13]: ~2 nM
EC50 (read off the curve) [14]: ~2 nM
EC50 (read off the curve) [15]: ~1 nM
EC50 (human 5T4-His protein [16]): 0.01 µg/mL
EC50 (read off the curve) (human 5T4-His protein [17]): ~0.1 nM
EC50 (read off the curve) (human 5T4-His protein [18]): ~0.2 nM
Kd (human 5T4-His protein [19]): 4.09 nM
koff (human 5T4-His protein [19]): 0.000738 s⁻¹
kon (human 5T4-His protein [19]): 180000 M⁻¹ s⁻¹

B3: Hu14G12-28-88# (antibody, V domains shown)
VH: B2 VH
VL: B2 VL with A89G
EC50 (read off the curve) [11]: ~0.3 nM
EC50 (read off the curve) [12]: ~2 nM
EC50 (read off the curve) [13]: ~2 nM
fold increase of binding affinity against the parental Hu14G12-28 (human 5T4-His protein [20]): 9.45 fold
EC50 (read off the curve) (human 5T4-His protein [18]): ~0.2 nM
Kd (human 5T4-His protein [19]): 0.433 nM
koff (human 5T4-His protein [19]): 8.28e-05 s⁻¹
kon (human 5T4-His protein [19]): 191000 M⁻¹ s⁻¹
